What all share (conditions): remark: other sources report otherwise
Assay [1] deals with monomeric alpha-synuclein, P37840. Nature of the assay: SPR single-cycle kinetics, antibody captured on anti-mouse chip, monomeric alpha-synuclein injected.
The target is the same in assay [2]. Nature of the assay: SPR, captured mAb; heterogeneous ligand model.
Assay [3] has the same target. In words: SPR, captured mAb; steady-state model. (In general: SPR reads the build-up and loss of mass on a sensor chip optically.)
The target of assay [4] is alpha-synuclein fibrils, P37840. Nature of the assay: SPR single-cycle kinetics, antibody captured on anti-mouse chip, alpha-synuclein fibrils injected.
The target is the same in assay [5]. In words: SPR, captured mAb.

B1: ACI-7067-1101C8-Ab2 (antibody, V domains shown)
VH: EVQLVESGGGLVQPKGSLKLSCAASGFSFNIYAMNWVRQAPGKGLEWVARIRSKSNNYATYYADSVKDRFTISRADSESMLYLQMNNLKTEDTAMYYCVRVGLRFYAMDYWGQGTSVTVSS
VL: DVLMTQTPLSLPVSLGDQASISCRSSQSIVHSNGNTYLEWYLQKPGQSPKLLIYKVSNRFSGVPDRFSGSGSGTDFTLKISRVEAEDLGVYYCFQGSQGPLTFGAGTKLELK
Turning to B1, the dissociation constant Kd turned out to be 38.8 nM in assay [1], 43.7 nM in assay [3], 1.6 nM in assay [4] and 2.9 nM in assay [5]. The off-rate constant (koff) in assay [1] came out at 0.019 s⁻¹; in assay [2], 0.0265 s⁻¹; in assay [4], 0.00024 s⁻¹; in assay [5], 0.000283 s⁻¹. In addition, the kon in assay [2] was found to be 55500 M⁻¹ s⁻¹; in assay [5], 176000 M⁻¹ s⁻¹.

As a reminder, the Kd is the constant that tells how readily two partners part at equilibrium. Read a low Kd as a tighter complex. Broadly, the koff is the first-order rate constant of dissociation. A higher koff goes with a short-lived complex. The kon is the second-order rate constant of association. A lower kon goes with slow association.
